Literature values, collected in PMC10108826.

Molecular target: sIL-6R soluble ECD (Homo sapiens) (UniProt P08887)
Chain of UniProt P08887 (P08887 20-355): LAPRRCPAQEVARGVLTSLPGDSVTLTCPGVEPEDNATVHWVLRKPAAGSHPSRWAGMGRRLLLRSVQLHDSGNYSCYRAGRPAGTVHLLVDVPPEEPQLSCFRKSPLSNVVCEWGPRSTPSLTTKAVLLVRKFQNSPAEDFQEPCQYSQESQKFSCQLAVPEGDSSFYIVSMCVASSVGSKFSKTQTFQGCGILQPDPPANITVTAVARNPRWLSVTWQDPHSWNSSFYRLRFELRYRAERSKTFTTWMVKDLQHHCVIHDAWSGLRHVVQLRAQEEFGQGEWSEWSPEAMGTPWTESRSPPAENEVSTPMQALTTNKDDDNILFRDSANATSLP

In the case of IL-6 (from UniProt P05231), the Kd is given as 1 nM.
